Paper PMC5389604

Biological target: T1, RarA (MgsA) (Escherichia coli, UniProt P0AAZ4 1-447)
T1 sequence: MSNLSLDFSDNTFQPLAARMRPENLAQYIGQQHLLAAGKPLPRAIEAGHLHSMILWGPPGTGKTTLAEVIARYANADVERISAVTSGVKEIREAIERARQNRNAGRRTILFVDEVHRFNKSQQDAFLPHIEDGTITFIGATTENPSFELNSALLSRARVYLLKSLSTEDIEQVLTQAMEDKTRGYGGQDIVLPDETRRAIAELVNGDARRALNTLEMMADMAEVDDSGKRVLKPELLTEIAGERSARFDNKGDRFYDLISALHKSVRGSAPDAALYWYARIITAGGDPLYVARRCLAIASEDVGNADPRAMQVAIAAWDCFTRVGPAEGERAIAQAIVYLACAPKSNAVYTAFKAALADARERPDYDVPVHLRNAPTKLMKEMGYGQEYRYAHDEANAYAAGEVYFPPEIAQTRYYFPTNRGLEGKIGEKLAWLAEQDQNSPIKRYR
Assay: fluorescence polarization

Binder: ACACAGAAGGAGACGG (ssDNA) [oANP031_F 16 nt ssDNA]
- Kd: 890 ± 28 nM
